Consider two molecules from publication PMC3715890.

Data set [1] concerns the target T1, HIF-1α 1-350;HIF-1β (ARNT) 1-474 (human?;human?, UniProt Q16665;P27540 1-350;1-474, |). Briefly: competition; unlabelled DNA titrated against labelled probe N1 (EMSA); EMSA: Tris-HCl (concentration and pH not in material), 50 mM KCl, 50 mM NaCl, 5 mM DTT, 1 mM MgCl2, 1 mM EDTA, 10% glycerol, 5 µg BSA, 25 ng poly dI-dC; 30 min.
The target of data set [2] is T1, HIF-1α 1-350;HIF-1β (ARNT) 1-474. Briefly: EMSA; EMSA: Tris-HCl (concentration and pH not in material), 50 mM KCl, 50 mM NaCl, 5 mM DTT, 1 mM MgCl2, 1 mM EDTA, 10% glycerol, 5 µg BSA, 25 ng poly dI-dC; 30 min.
Data set [3] concerns the target HIF-2α (EPAS1) 1-351;HIF-1β (ARNT) 1-474 (human?;human?, UniProt Q99814;P27540 1-351;1-474, |). Described as above.

B1: unlabelled HRE competitor DNA (dsDNA)
DNA 1: GGCTGGGCCTACGTGCTGTCTCACACAGCC
DNA 2: GGCTGTGTGAGACAGCACGTAGGCCCAGCC
With B1, in data set [1], the binding result is on record as “binds”.

B2: EMSA HRE probe (human EPO enhancer) (dsDNA)
DNA 1: GGCTGGGCCTACGTGCTGTCTCACACAGCC
DNA 2: GGCTGTGTGAGACAGCACGTAGGCCCAGCC
As to B2, the binding result in data set [2] and in data set [3] was “binds” each time.
